Experimental data published in PMC5374433, “Theranostic Value of Multimers: Lessons Learned from Trimerization of Neurotensin Receptor Ligands and Other Targeting Vectors” (Pharmaceuticals, 2017).
Like-named read-outs stand apart in the source and are kept apart here.

How the values were obtained:
human NTS1 = human NTS1 (Homo sapiens, UniProt P30989); experiment: Competitive radioligand binding assay, NTS1; settings: Ki (NTS1, nM), membranes of CHO cells stably expressing human NTS1; mean ± SEM, 4-8 experiments
Sequence of human NTS1 (P30989 whole entry): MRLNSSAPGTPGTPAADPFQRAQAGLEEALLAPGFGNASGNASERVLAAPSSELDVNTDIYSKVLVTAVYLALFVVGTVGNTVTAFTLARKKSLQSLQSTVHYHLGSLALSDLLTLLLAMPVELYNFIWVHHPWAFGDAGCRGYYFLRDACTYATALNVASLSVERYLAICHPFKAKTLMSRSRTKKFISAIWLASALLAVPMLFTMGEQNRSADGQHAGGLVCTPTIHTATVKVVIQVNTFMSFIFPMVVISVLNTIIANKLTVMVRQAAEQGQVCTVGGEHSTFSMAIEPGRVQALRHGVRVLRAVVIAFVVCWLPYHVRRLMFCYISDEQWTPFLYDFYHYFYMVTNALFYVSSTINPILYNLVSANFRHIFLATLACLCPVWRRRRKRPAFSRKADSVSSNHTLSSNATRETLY
Procedure: (§1) Receptor binding data were performed as described previously. […] NTS2 binding was conducted using homogenates of membranes from HEK 293 cells transiently transfected with pcDNA3.1 carrying the human NTS2 gene (Missouri S&T cDNA Resource Center (UMR), Rolla, MO, USA) using the Mirus TransIT-293 transfection reagent (MoBiTec, Göttingen, Germany) according to the manufacturer’s protocol.
(§2) Data analysis of the competition binding curves from the radioligand displacement experiments was done by non-linear regression analysis when applying the algorithms of the PRISM 6.0 software package (GraphPad Software, San Diego, CA, USA). EC50 values were derived from each dose-response curve and were subsequently transformed into the corresponding Ki values by applying the equation of Cheng and Prusoff. Mean Ki values and the corresponding S.E.M. values (standard error of the mean) were determined by analyzing four to eight individual experiments.

PSMA = tested on: PSMA; set-up: method as in PMID 25999035; settings: Ga complexes; read-out: Affinity IC50 (nM), PSMA; cited from earlier work
[1] = Octanol/PBS distribution coefficient log D pH 7.4; format: physicochemical
[2] = Biodistribution, LNCaP xenograft; settings: in vivo, 60 min p.i., estimated from PET ROI analysis, ± SD
αvβ6 integrin [3] = tested on: αvβ6 integrin; set-up: method as in PMID 27980050; settings: Ga complexes; read-out: Affinity IC50 (nM), αvβ6 integrin; cited from earlier work
[4] = in vivo, H2009 xenograft, 90 min p.i., estimated from PET ROI analysis, ± SD
αvβ6 integrin [5] = experiment: Affinity to αvβ6 integrin; format: binding; settings: Ga complexes
human NTS2 = target: T1, human NTS2 (Homo sapiens, UniProt O95665); experiment: Competitive radioligand binding assay, NTS2
T1 construct: host or cells: HEK 293 cells (transient transfection, pcDNA3.1)
T1 sequence (O95665 whole entry): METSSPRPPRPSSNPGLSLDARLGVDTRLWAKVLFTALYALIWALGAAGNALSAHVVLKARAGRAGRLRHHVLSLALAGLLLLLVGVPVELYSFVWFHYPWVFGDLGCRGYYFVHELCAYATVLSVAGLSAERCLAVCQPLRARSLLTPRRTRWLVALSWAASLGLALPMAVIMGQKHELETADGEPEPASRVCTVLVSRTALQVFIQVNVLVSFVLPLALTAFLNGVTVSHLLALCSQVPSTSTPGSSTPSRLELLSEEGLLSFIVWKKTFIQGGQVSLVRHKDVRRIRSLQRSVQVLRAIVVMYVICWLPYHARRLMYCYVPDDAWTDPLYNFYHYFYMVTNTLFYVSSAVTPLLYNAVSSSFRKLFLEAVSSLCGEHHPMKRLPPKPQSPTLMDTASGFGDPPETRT
Procedure: as §1, §2

[6] = Biodistribution in HT29 tumor-bearing nude mice; format: in vivo, mouse; settings: mouse, in vivo, 60 min p.i.
Procedure: For in vivo evaluation of [^68Ga]Ga-TRAP(NT4)3 the NTS1-positive human colorectal adenocarcinoma cells HT29 were injected in nude mice to generate a subcutaneous tumor. The radioligand was injected in the tail vein of the mice and the biodistribution was determined 60 and 90 min after tracer injection. […] The clearance rate of [^68Ga]Ga-TRAP(NT4)3 in these excretion organs was apparently low. […] (1.44 %ID/g). Blocking experiments were performed to confirm the specificity of the tumor uptake of [^68Ga]Ga-TRAP(NT4)3 in vivo. Therefore, TRAP(NT4)3 (20 nmol) or NT4 (100 nmol) were co-injected together with the radiotracer to define the nonspecific uptake of the tracer in the tumor region. […] Apart from the intestine, the uptake in all other organs was not affected by the blocking substances (Table 2), confirming the receptor-mediated uptake of [^68Ga]Ga-TRAP(NT4)3, as it was reported that NTS receptors are expressed in the small intestine of mice.
All animal experiments were performed in compliance with the protocols approved by the local Animal Protection Authorities (Regierung Mittelfranken, Germany, no. 54-2532.1-15/08). Female athymic NMRI nude mice (nu/nu) were obtained from Harlan Winkelmann GmbH (Borchen, Germany) at four weeks of age and were kept under standard conditions (12 h light/dark) with food and water available ad libitum for at least five weeks. HT29 tumors were generated as described before.
HT29 xenografted nude mice were injected with [^68Ga]Ga-TRAP(NT4)3 into a tail vein (2.5–7.5 MBq/mouse). The animals were killed by cervical dislocation 60 or 90 min p.i. The tumors, other tissues (lung, liver, kidneys, heart, spleen, brain, muscle, femur, and intestine) and blood were removed and weighed. Radioactivity of the samples was measured using a γ-counter and expressed as the percentage of injected dose per gram of tissue (%ID/g), from which tumor-to-blood ratios were calculated. Blocking experiments were carried out by co-injecting randomly chosen mice with TRAP(NT4)3 (20 nmol/mouse) or NT4 (100 nmol/mouse) together with the radiotracer. These mice were killed by cervical dislocation at 60 min p.i., and organs and tissue were removed, weighed, and counted as described above.

[7] = in vivo; cited from earlier work
H2009 xenograft = settings: in vivo, 1.5 h; cited from earlier work
[8] = cited from earlier work

CC(C)C[C@H](NC(=O)[C@@H](NC(=O)[C@H](Cc1ccc(O)cc1)NC(=O)[C@@H]1CCCN1C(=O)[C@H](CCCCN)NC(=O)CN(CCCCN)C(=O)[C@@H](N)CCCCn1cc(CNC(=O)CCP(=O)(O)CN2CCN(CP(=O)(O)CCC(=O)NCc3cn(CCCC[C@H](N)C(=O)N(CCCCN)CC(=O)N[C@@H](CCCCN)C(=O)N4CCC[C@H]4C(=O)N[C@@H](Cc4ccc(O)cc4)C(=O)N[C@H](C(=O)N[C@@H](CC(C)C)C(=O)O)C(C)(C)C)nn3)CCN(CP(=O)(O)CCC(=O)NCc3cn(CCCC[C@H](N)C(=O)N(CCCCN)CC(=O)N[C@@H](CCCCN)C(=O)N4CCC[C@H]4C(=O)N[C@@H](Cc4ccc(O)cc4)C(=O)N[C@H](C(=O)N[C@@H](CC(C)C)C(=O)O)C(C)(C)C)nn3)CC2)nn1)C(C)(C)C)C(=O)O (single isomer, unassigned) [Ga-TRAP(NT4)3]
Ki (human NTS1): 0.12 ± 0.03 nM

O=C(O)CC[C@H](NC(=O)N[C@@H](CCCCNC(=O)CCCCCCC(=O)NCCCC[C@H](NC(=O)[C@H](Cc1ccccc1)NC(=O)[C@H](Cc1ccccc1)NC(=O)CCC(C(=O)O)N1CCN(CC(=O)O)CCN(CC(=O)O)CCN(CC(=O)O)CC1)C(=O)O)C(=O)O)C(=O)O (stereo partly shown) [DOTAGA-DUPA]
IC50 (PSMA): 36 nM
logD [1]: -3.6 ± 0.2
tissue uptake at 1 h ([2]; read-out: Blood %ID/g): 2.5 ± 0.14 %ID/g
tissue uptake at 1 h ([2]; read-out: Kidney %ID/g): 29 ± 7 %ID/g
tissue uptake at 1 h ([2]; read-out: Liver %ID/g): 2 ± 0.17 %ID/g
tissue uptake at 1 h ([2]; read-out: Muscle %ID/g): 1.2 ± 0.13 %ID/g
tissue uptake at 1 h ([2]; read-out: Tumor %ID/g): 2 ± 0.2 %ID/g

CC(C)C[C@@H]1NC(=O)[C@H](CC(=O)O)NC(=O)CNC(=O)[C@H](CCCNC(=N)N)NC(=O)[C@H](Cc2ccccc2)NC(=O)[C@H](CCCCNC(=O)CCc2cn(CCCNC(=O)CCP(=O)(O)CN3CCN(CP(=O)(O)CCC(=O)NCCCn4cc(CCC(=O)NCCCC[C@H]5C(=O)N[C@@H](Cc6ccccc6)C(=O)N[C@@H](CCCNC(=N)N)C(=O)NCC(=O)N[C@@H](CC(=O)O)C(=O)N[C@@H](CC(C)C)C(=O)N[C@@H](C)C(=O)N[C@@H](Cc6ccccc6)C(=O)N6CCC[C@@H]6C(=O)N5C)nn4)CCN(CP(=O)(O)CCC(=O)NCCCn4cc(CCC(=O)NCCCC[C@H]5C(=O)N[C@@H](Cc6ccccc6)C(=O)N[C@@H](CCCNC(=N)N)C(=O)NCC(=O)N[C@@H](CC(=O)O)C(=O)N[C@@H](CC(C)C)C(=O)N[C@@H](C)C(=O)N[C@@H](Cc6ccccc6)C(=O)N6CCC[C@@H]6C(=O)N5C)nn4)CC3)nn2)N(C)C(=O)[C@H]2CCCN2C(=O)[C@H](Cc2ccccc2)NC(=O)[C@H](C)NC1=O [TRAP(AvB6)3]
IC50 (αvβ6 integrin [3]): 0.023 nM
tissue uptake at 1.5 h ([4]; Blood %ID/g): 1.9 ± 0.15 %ID/g
tissue uptake at 1.5 h ([4]; Kidney %ID/g): 17.7 ± 6.5 %ID/g
tissue uptake at 1.5 h ([4]; Liver %ID/g): 3.7 ± 0.14 %ID/g
tissue uptake at 1.5 h ([4]; Muscle %ID/g): 0.71 ± 0.1 %ID/g
tissue uptake at 1.5 h ([4]; Tumor %ID/g): 0.92 ± 0.08 %ID/g
Affinity factor monomer/trimer, αvβ6 integrin (αvβ6 integrin [5]): 11

CC(C)C[C@H](NC(=O)[C@@H](NC(=O)[C@H](Cc1ccc(O)cc1)NC(=O)[C@@H]1CCCN1C(=O)[C@H](CCCCN)NC(=O)CN(CCCCN)C(=O)[C@@H](N)CCCCn1cc(CNC(=O)CCP(=O)(O)CN2CCN(CP(=O)(O)CCC(=O)NCc3cn(CCCC[C@H](N)C(=O)N(CCCCN)CC(=O)N[C@@H](CCCCN)C(=O)N4CCC[C@H]4C(=O)N[C@@H](Cc4ccc(O)cc4)C(=O)N[C@H](C(=O)N[C@@H](CC(C)C)C(=O)O)C(C)(C)C)nn3)CCN(CP(=O)(O)CCC(=O)NCc3cn(CCCC[C@H](N)C(=O)N(CCCCN)CC(=O)N[C@@H](CCCCN)C(=O)N4CCC[C@H]4C(=O)N[C@@H](Cc4ccc(O)cc4)C(=O)N[C@H](C(=O)N[C@@H](CC(C)C)C(=O)O)C(C)(C)C)nn3)CC2)nn1)C(C)(C)C)C(=O)O [TRAP(NT4)3]
logD ([1]; octanol/PBS, Ga complex, ± standard deviation, first reported herein, read-out: log D pH 7.4): -3.7 ± 0.1
Ki (human NTS2): 260 ± 50 pM
tissue uptake at 1 h ([6]; read-out: HT29 tumor uptake): 1.74 %ID/g
tissue uptake at 1 h ([6]; read-out: blood uptake): 0.13 %ID/g
tissue uptake at 1 h ([6]; read-out: kidney uptake): 95 %ID/g
tissue uptake at 1 h ([6]; read-out: liver uptake): 11 %ID/g
tissue uptake at 1 h ([6]; read-out: muscle uptake): 0.09 %ID/g
Ki (human NTS1): 0.47 ± 0.05 nM

Arg^8-Arg^9-Pro^10-Tyr^11-Ile^12-Leu^13-OH [NT(8–13)]
biological half-life [7]: only a few minutes, or even less

TRAP(AvB6)1: Ga-monomer of c(FRGDLAF-p[NMe]K), αvβ6 integrin (cyclo(FRGDLAF); not fully specified (C-terminus); also: TRAP chelator Ga complex, attachment site not given here)
IC50 (αvβ6 integrin [3]): 0.26 nM
Blood %ID/g (H2009 xenograft): 0.17 %ID/g
Kidney %ID/g (H2009 xenograft): 4.3 %ID/g
Liver %ID/g (H2009 xenograft): 0.36 %ID/g
Muscle %ID/g (H2009 xenograft): 0.06 %ID/g
Tumor %ID/g (H2009 xenograft): 0.65 %ID/g
log D pH 7.4 [8]: −3.7
